Abundance fitness data for 40 variants are collected here from the Human Domainome abundance scans (Beltran et al. 2025).

Sequences and labels used below:
B1: SWI/SNF-related matrix-associated actin-dependent regulator of chromatin subfamily B member 1, residues 181 to 248; numbered along this chain, Q12824 (parent)
chain: SQPEVLVPIRLDMEIDGQKLRDAFTWNMNEKLMTPEMFSEILCDDLDLNPLTFVPAIASAIRQQIESY

± gives the uncertainty stated by the source.

In this data set the parent is B1. Kind of data set: abundance fitness (aPCA) (normalised: wild type 0, dead -1); higher = more abundant; growth selection in yeast, the domain comes from the species named. The following applies: Homo sapiens.
For SQPEVLVPIRLVMEIDGQKLRDAFTWNMNEKLMTPEMFSEILCDDLDLNPLTFVPAIASAIRQQIESY [D12V], the abundance fitness is -0.646 ± 0.41.

As to SQPEVLVPIRLSMEIDGQKLRDAFTWNMNEKLMTPEMFSEILCDDLDLNPLTFVPAIASAIRQQIESY [D12S], the abundance fitness is -0.474 ± 0.21.

With SQPEVLVPIRLGMEIDGQKLRDAFTWNMNEKLMTPEMFSEILCDDLDLNPLTFVPAIASAIRQQIESY [D12G], the abundance fitness is -0.264 ± 0.5.

Take SQPEVLVQIRLDMEIDGQKLRDAFTWNMNEKLMTPEMFSEILCDDLDLNPLTFVPAIASAIRQQIESY [P8Q]: the abundance fitness was -0.072 ± 0.043.

In the case of SQPEVLVTIRLDMEIDGQKLRDAFTWNMNEKLMTPEMFSEILCDDLDLNPLTFVPAIASAIRQQIESY [P8T], the abundance fitness is -0.177 ± 0.048.

With SQPEVLVVIRLDMEIDGQKLRDAFTWNMNEKLMTPEMFSEILCDDLDLNPLTFVPAIASAIRQQIESY [P8V], the abundance fitness was -0.315 ± 0.074.

Take SQPEVLVFIRLDMEIDGQKLRDAFTWNMNEKLMTPEMFSEILCDDLDLNPLTFVPAIASAIRQQIESY [P8F]: the abundance fitness was -0.506 ± 0.089.

Consider SQPEVLVGIRLDMEIDGQKLRDAFTWNMNEKLMTPEMFSEILCDDLDLNPLTFVPAIASAIRQQIESY [P8G], for which the abundance fitness was -0.875 ± 0.13.

On to SQPEVLVEIRLDMEIDGQKLRDAFTWNMNEKLMTPEMFSEILCDDLDLNPLTFVPAIASAIRQQIESY [P8E], for which the abundance fitness was -0.197 ± 0.089.

On to SQPEVLVNIRLDMEIDGQKLRDAFTWNMNEKLMTPEMFSEILCDDLDLNPLTFVPAIASAIRQQIESY [P8N], for which the abundance fitness was -0.286 ± 0.14.

For SQPEVLVSIRLDMEIDGQKLRDAFTWNMNEKLMTPEMFSEILCDDLDLNPLTFVPAIASAIRQQIESY [P8S], the abundance fitness was -0.405 ± 0.042.

For SQPEVLVYIRLDMEIDGQKLRDAFTWNMNEKLMTPEMFSEILCDDLDLNPLTFVPAIASAIRQQIESY [P8Y], the abundance fitness is -0.55 ± 0.12.

For the variant SQPEVLVCIRLDMEIDGQKLRDAFTWNMNEKLMTPEMFSEILCDDLDLNPLTFVPAIASAIRQQIESY [P8C], the abundance fitness was -0.736 ± 0.13.

As to SQPEVLVMIRLDMEIDGQKLRDAFTWNMNEKLMTPEMFSEILCDDLDLNPLTFVPAIASAIRQQIESY [P8M], the abundance fitness was -0.355 ± 0.068.

As for SQPEVLVIIRLDMEIDGQKLRDAFTWNMNEKLMTPEMFSEILCDDLDLNPLTFVPAIASAIRQQIESY [P8I], the abundance fitness is -0.523 ± 0.1.

With SQPEVLVLIRLDMEIDGQKLRDAFTWNMNEKLMTPEMFSEILCDDLDLNPLTFVPAIASAIRQQIESY [P8L], the abundance fitness is -0.512 ± 0.043.

Regarding SQPEVLVAIRLDMEIDGQKLRDAFTWNMNEKLMTPEMFSEILCDDLDLNPLTFVPAIASAIRQQIESY [P8A], the abundance fitness is -0.676 ± 0.074.

Take SQPEVLVHIRLDMEIDGQKLRDAFTWNMNEKLMTPEMFSEILCDDLDLNPLTFVPAIASAIRQQIESY [P8H]: the abundance fitness was -0.641 ± 0.14.

On to SQPEVLVRIRLDMEIDGQKLRDAFTWNMNEKLMTPEMFSEILCDDLDLNPLTFVPAIASAIRQQIESY [P8R], for which the abundance fitness was -0.352 ± 0.037.

Turning to SQPEVLVPIRLDREIDGQKLRDAFTWNMNEKLMTPEMFSEILCDDLDLNPLTFVPAIASAIRQQIESY [M13R], the abundance fitness is -0.703 ± 0.23.

With SQPEVLVPIRLDVEIDGQKLRDAFTWNMNEKLMTPEMFSEILCDDLDLNPLTFVPAIASAIRQQIESY [M13V], the abundance fitness was -0.214 ± 0.17.

As to SQPEVLVPIRLDLEIDGQKLRDAFTWNMNEKLMTPEMFSEILCDDLDLNPLTFVPAIASAIRQQIESY [M13L], the abundance fitness is -0.089 ± 0.22.

SQPEVLVPIRLDIEIDGQKLRDAFTWNMNEKLMTPEMFSEILCDDLDLNPLTFVPAIASAIRQQIESY [M13I]: the abundance fitness was -0.149 ± 0.29.

SQPEVLVPIRLDQEIDGQKLRDAFTWNMNEKLMTPEMFSEILCDDLDLNPLTFVPAIASAIRQQIESY [M13Q]: the abundance fitness is -0.717 ± 0.34.

Take SQPEVLVPIRLDTEIDGQKLRDAFTWNMNEKLMTPEMFSEILCDDLDLNPLTFVPAIASAIRQQIESY [M13T]: the abundance fitness was -0.638 ± 0.34.

As to SQPEVLVPIRLDDEIDGQKLRDAFTWNMNEKLMTPEMFSEILCDDLDLNPLTFVPAIASAIRQQIESY [M13D], the abundance fitness was -0.944 ± 0.44.

Regarding SQPEVLVPIRLDGEIDGQKLRDAFTWNMNEKLMTPEMFSEILCDDLDLNPLTFVPAIASAIRQQIESY [M13G], the abundance fitness was -0.718 ± 0.25.

In the case of SQPEVLVPRRLDMEIDGQKLRDAFTWNMNEKLMTPEMFSEILCDDLDLNPLTFVPAIASAIRQQIESY [I9R], the abundance fitness is -1.03 ± 0.23.

With SQPEVLVPTRLDMEIDGQKLRDAFTWNMNEKLMTPEMFSEILCDDLDLNPLTFVPAIASAIRQQIESY [I9T], the abundance fitness is -0.701 ± 0.21.

Take SQPEVLVPNRLDMEIDGQKLRDAFTWNMNEKLMTPEMFSEILCDDLDLNPLTFVPAIASAIRQQIESY [I9N]: the abundance fitness was -0.742 ± 0.25.

Turning to SQPEVLVPFRLDMEIDGQKLRDAFTWNMNEKLMTPEMFSEILCDDLDLNPLTFVPAIASAIRQQIESY [I9F], the abundance fitness is -0.791 ± 0.23.

As to SQPEVLVPERLDMEIDGQKLRDAFTWNMNEKLMTPEMFSEILCDDLDLNPLTFVPAIASAIRQQIESY [I9E], the abundance fitness was -0.904 ± 0.44.

For SQPEVLVPQRLDMEIDGQKLRDAFTWNMNEKLMTPEMFSEILCDDLDLNPLTFVPAIASAIRQQIESY [I9Q], the abundance fitness was -0.868 ± 0.21.

Turning to SQPEVLVPHRLDMEIDGQKLRDAFTWNMNEKLMTPEMFSEILCDDLDLNPLTFVPAIASAIRQQIESY [I9H], the abundance fitness was -0.89 ± 0.25.

Take SQPEVLVPDRLDMEIDGQKLRDAFTWNMNEKLMTPEMFSEILCDDLDLNPLTFVPAIASAIRQQIESY [I9D]: the abundance fitness was -0.74 ± 0.2.

Regarding SQPEVLVPPRLDMEIDGQKLRDAFTWNMNEKLMTPEMFSEILCDDLDLNPLTFVPAIASAIRQQIESY [I9P], the abundance fitness is -0.094 ± 0.43.

Take SQPEVLVPARLDMEIDGQKLRDAFTWNMNEKLMTPEMFSEILCDDLDLNPLTFVPAIASAIRQQIESY [I9A]: the abundance fitness was -0.784 ± 0.11.

Turning to SQPEVLVPLRLDMEIDGQKLRDAFTWNMNEKLMTPEMFSEILCDDLDLNPLTFVPAIASAIRQQIESY [I9L], the abundance fitness was -0.989 ± 0.28.

With SQPEVLVPSRLDMEIDGQKLRDAFTWNMNEKLMTPEMFSEILCDDLDLNPLTFVPAIASAIRQQIESY [I9S], the abundance fitness is -1.05 ± 0.32.

With SQPEVLVPGRLDMEIDGQKLRDAFTWNMNEKLMTPEMFSEILCDDLDLNPLTFVPAIASAIRQQIESY [I9G], the abundance fitness was -0.762 ± 0.18.
